Source: article PMC6797079

T1: NIS D237A, cerulean- or citrine-tagged, Q92911
T1 chain: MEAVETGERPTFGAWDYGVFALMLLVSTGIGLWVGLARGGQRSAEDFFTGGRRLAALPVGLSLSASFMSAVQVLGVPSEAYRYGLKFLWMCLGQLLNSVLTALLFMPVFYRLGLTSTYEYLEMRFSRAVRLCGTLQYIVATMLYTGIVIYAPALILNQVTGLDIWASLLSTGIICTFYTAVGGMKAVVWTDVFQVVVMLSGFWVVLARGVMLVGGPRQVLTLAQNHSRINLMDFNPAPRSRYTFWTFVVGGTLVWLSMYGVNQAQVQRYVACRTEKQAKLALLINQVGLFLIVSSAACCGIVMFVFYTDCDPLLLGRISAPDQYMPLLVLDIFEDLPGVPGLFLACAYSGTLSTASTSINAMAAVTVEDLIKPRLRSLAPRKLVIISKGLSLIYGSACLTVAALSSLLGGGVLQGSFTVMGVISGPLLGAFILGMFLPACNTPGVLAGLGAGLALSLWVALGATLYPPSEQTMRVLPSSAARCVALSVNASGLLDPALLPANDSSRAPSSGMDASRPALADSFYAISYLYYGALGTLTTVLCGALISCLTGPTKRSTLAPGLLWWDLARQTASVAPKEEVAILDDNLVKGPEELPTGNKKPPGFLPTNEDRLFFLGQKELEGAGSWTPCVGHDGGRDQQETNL

T2: NIS Y242A, cerulean- or citrine-tagged, Q92911
T2 chain: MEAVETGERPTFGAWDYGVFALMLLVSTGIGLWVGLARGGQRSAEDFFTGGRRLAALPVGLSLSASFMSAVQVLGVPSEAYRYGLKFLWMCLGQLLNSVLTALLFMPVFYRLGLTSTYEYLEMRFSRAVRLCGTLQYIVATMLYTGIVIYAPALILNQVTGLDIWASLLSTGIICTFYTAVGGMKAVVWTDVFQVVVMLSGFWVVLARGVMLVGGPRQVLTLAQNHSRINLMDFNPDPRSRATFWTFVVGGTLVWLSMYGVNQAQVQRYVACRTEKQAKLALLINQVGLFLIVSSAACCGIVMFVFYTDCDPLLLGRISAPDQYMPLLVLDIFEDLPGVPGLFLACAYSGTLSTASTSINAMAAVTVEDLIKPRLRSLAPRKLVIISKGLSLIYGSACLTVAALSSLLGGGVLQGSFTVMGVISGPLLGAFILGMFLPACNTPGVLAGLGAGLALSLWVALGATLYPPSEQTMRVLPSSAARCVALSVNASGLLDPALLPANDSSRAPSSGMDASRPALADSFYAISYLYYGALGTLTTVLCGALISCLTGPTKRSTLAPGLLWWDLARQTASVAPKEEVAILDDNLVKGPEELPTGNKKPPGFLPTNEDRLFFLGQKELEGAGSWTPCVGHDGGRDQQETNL

T3: NIS T243A, cerulean- or citrine-tagged, Q92911
T3 chain: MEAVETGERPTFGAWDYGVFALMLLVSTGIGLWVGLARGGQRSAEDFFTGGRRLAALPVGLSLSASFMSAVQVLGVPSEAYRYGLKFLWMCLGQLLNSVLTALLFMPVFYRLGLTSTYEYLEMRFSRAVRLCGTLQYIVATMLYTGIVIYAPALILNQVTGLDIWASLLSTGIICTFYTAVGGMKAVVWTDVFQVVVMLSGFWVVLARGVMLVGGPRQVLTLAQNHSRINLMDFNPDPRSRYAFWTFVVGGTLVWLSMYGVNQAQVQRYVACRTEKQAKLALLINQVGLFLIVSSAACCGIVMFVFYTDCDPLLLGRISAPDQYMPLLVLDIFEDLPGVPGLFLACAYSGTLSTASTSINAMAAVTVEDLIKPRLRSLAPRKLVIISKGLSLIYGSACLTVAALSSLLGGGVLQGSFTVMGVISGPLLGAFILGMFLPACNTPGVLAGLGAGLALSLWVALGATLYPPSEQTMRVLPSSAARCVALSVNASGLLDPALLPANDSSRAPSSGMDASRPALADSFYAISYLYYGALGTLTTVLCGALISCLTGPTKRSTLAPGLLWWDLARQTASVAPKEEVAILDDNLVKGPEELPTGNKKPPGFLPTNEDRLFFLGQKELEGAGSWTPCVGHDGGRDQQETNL

B1: sodium/iodide symporter (NIS), wild type, cerulean- or citrine-tagged, Q92911 Cer:A525F; Cit:D237A (protein)
chain: MEAVETGERPTFGAWDYGVFALMLLVSTGIGLWVGLARGGQRSAEDFFTGGRRLAALPVGLSLSASFMSAVQVLGVPSEAYRYGLKFLWMCLGQLLNSVLTALLFMPVFYRLGLTSTYEYLEMRFSRAVRLCGTLQYIVATMLYTGIVIYAPALILNQVTGLDIWASLLSTGIICTFYTAVGGMKAVVWTDVFQVVVMLSGFWVVLARGVMLVGGPRQVLTLAQNHSRINLMDFNPDPRSRYTFWTFVVGGTLVWLSMYGVNQAQVQRYVACRTEKQAKLALLINQVGLFLIVSSAACCGIVMFVFYTDCDPLLLGRISAPDQYMPLLVLDIFEDLPGVPGLFLACAYSGTLSTASTSINAMAAVTVEDLIKPRLRSLAPRKLVIISKGLSLIYGSACLTVAALSSLLGGGVLQGSFTVMGVISGPLLGAFILGMFLPACNTPGVLAGLGAGLALSLWVALGATLYPPSEQTMRVLPSSAARCVALSVNASGLLDPALLPANDSSRAPSSGMDASRPALADSFYFISYLYYGALGTLTTVLCGALISCLTGPTKRSTLAPGLLWWDLARQTASVAPKEEVAILDDNLVKGPEELPTGNKKPPGFLPTNEDRLFFLGQKELEGAGSWTPCVGHDGGRDQQETNL
B2: sodium/iodide symporter (NIS), wild type, cerulean- or citrine-tagged, Q92911 Cer:Q471A; Cit:Y242A (protein)
chain: MEAVETGERPTFGAWDYGVFALMLLVSTGIGLWVGLARGGQRSAEDFFTGGRRLAALPVGLSLSASFMSAVQVLGVPSEAYRYGLKFLWMCLGQLLNSVLTALLFMPVFYRLGLTSTYEYLEMRFSRAVRLCGTLQYIVATMLYTGIVIYAPALILNQVTGLDIWASLLSTGIICTFYTAVGGMKAVVWTDVFQVVVMLSGFWVVLARGVMLVGGPRQVLTLAQNHSRINLMDFNPDPRSRYTFWTFVVGGTLVWLSMYGVNQAQVQRYVACRTEKQAKLALLINQVGLFLIVSSAACCGIVMFVFYTDCDPLLLGRISAPDQYMPLLVLDIFEDLPGVPGLFLACAYSGTLSTASTSINAMAAVTVEDLIKPRLRSLAPRKLVIISKGLSLIYGSACLTVAALSSLLGGGVLQGSFTVMGVISGPLLGAFILGMFLPACNTPGVLAGLGAGLALSLWVALGATLYPPSEATMRVLPSSAARCVALSVNASGLLDPALLPANDSSRAPSSGMDASRPALADSFYAISYLYYGALGTLTTVLCGALISCLTGPTKRSTLAPGLLWWDLARQTASVAPKEEVAILDDNLVKGPEELPTGNKKPPGFLPTNEDRLFFLGQKELEGAGSWTPCVGHDGGRDQQETNL
B3: sodium/iodide symporter (NIS), wild type, cerulean- or citrine-tagged, Q92911 Cer:A525F; Cit:Y242A (protein)
chain: MEAVETGERPTFGAWDYGVFALMLLVSTGIGLWVGLARGGQRSAEDFFTGGRRLAALPVGLSLSASFMSAVQVLGVPSEAYRYGLKFLWMCLGQLLNSVLTALLFMPVFYRLGLTSTYEYLEMRFSRAVRLCGTLQYIVATMLYTGIVIYAPALILNQVTGLDIWASLLSTGIICTFYTAVGGMKAVVWTDVFQVVVMLSGFWVVLARGVMLVGGPRQVLTLAQNHSRINLMDFNPDPRSRYTFWTFVVGGTLVWLSMYGVNQAQVQRYVACRTEKQAKLALLINQVGLFLIVSSAACCGIVMFVFYTDCDPLLLGRISAPDQYMPLLVLDIFEDLPGVPGLFLACAYSGTLSTASTSINAMAAVTVEDLIKPRLRSLAPRKLVIISKGLSLIYGSACLTVAALSSLLGGGVLQGSFTVMGVISGPLLGAFILGMFLPACNTPGVLAGLGAGLALSLWVALGATLYPPSEQTMRVLPSSAARCVALSVNASGLLDPALLPANDSSRAPSSGMDASRPALADSFYFISYLYYGALGTLTTVLCGALISCLTGPTKRSTLAPGLLWWDLARQTASVAPKEEVAILDDNLVKGPEELPTGNKKPPGFLPTNEDRLFFLGQKELEGAGSWTPCVGHDGGRDQQETNL
B4: sodium/iodide symporter (NIS), wild type, cerulean- or citrine-tagged, Q92911 Cer:Q471A; Cit:T243A (protein)
chain: MEAVETGERPTFGAWDYGVFALMLLVSTGIGLWVGLARGGQRSAEDFFTGGRRLAALPVGLSLSASFMSAVQVLGVPSEAYRYGLKFLWMCLGQLLNSVLTALLFMPVFYRLGLTSTYEYLEMRFSRAVRLCGTLQYIVATMLYTGIVIYAPALILNQVTGLDIWASLLSTGIICTFYTAVGGMKAVVWTDVFQVVVMLSGFWVVLARGVMLVGGPRQVLTLAQNHSRINLMDFNPDPRSRYTFWTFVVGGTLVWLSMYGVNQAQVQRYVACRTEKQAKLALLINQVGLFLIVSSAACCGIVMFVFYTDCDPLLLGRISAPDQYMPLLVLDIFEDLPGVPGLFLACAYSGTLSTASTSINAMAAVTVEDLIKPRLRSLAPRKLVIISKGLSLIYGSACLTVAALSSLLGGGVLQGSFTVMGVISGPLLGAFILGMFLPACNTPGVLAGLGAGLALSLWVALGATLYPPSEATMRVLPSSAARCVALSVNASGLLDPALLPANDSSRAPSSGMDASRPALADSFYAISYLYYGALGTLTTVLCGALISCLTGPTKRSTLAPGLLWWDLARQTASVAPKEEVAILDDNLVKGPEELPTGNKKPPGFLPTNEDRLFFLGQKELEGAGSWTPCVGHDGGRDQQETNL

How the values were obtained:
Test in all cases: FRET
Details in all cases: chain shown with the change, n = 2, minimum of 20 cells analyzed in each n, read off a plot
[1] = target: T1, NIS D237A, cerulean- or citrine-tagged, …
[2] = target: T2, NIS Y242A, cerulean- or citrine-tagged, …
[3] = target: T3, NIS T243A, cerulean- or citrine-tagged, …

Binder	response ([2]; HeLa cells, parent: est. 15)	response ([2]; SW1736 cells, parent: est. -10)	other results
B1			response ([1]; HeLa cells, parent: est. 15): 50; response ([1]; SW1736 cells, parent: est. -10): -180
B2	-100	-220	
B3	120	-50	
B4			response ([3]; HeLa cells, parent: est. 15): -100; response ([3]; SW1736 cells, parent: est. -10): -330
